{
  "source": "paper PMC5481814",
  "about": "“Stapled Voltage-Gated Calcium Channel (CaV) α-Interaction Domain (AID) Peptides Act As Selective Protein–Protein Interaction Inhibitors of CaV Function” (ACS Chemical Neuroscience, 2017)",
  "key": {"[1]": {"target": "CaVβ2a core (unimolecular CaVβ2a construct) (rat)", "test": "ITC; 20 μM AID peptide titrated into 2 μM CaVβ2a core; 15 °C; 150 mM KCl, 10 mM potassium phosphate, pH 7.3; single site binding model"}, "[2]": {"target": "CaVβ2a core (Rattus norvegicus) (UniProt Q8VGC3)", "sequence (Q8VGC3 68-476)": "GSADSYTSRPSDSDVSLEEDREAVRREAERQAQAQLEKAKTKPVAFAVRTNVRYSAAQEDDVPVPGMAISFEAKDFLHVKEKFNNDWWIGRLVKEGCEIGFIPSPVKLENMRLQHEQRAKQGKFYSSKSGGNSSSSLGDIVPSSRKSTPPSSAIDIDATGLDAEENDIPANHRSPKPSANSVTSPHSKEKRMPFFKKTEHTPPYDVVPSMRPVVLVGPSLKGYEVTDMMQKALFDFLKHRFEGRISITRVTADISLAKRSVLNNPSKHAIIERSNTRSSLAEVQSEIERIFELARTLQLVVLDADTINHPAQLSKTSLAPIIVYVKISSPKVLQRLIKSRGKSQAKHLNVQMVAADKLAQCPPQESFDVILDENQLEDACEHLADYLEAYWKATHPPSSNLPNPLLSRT", "test": "ITC", "conditions": "cited from earlier work"}, "[3]": {"target": "Human CaV1.2 (α1C77) (human) (UniProt Q13936)", "sequence (Q13936 other isoform, or with tags, fused parts or gaps)": "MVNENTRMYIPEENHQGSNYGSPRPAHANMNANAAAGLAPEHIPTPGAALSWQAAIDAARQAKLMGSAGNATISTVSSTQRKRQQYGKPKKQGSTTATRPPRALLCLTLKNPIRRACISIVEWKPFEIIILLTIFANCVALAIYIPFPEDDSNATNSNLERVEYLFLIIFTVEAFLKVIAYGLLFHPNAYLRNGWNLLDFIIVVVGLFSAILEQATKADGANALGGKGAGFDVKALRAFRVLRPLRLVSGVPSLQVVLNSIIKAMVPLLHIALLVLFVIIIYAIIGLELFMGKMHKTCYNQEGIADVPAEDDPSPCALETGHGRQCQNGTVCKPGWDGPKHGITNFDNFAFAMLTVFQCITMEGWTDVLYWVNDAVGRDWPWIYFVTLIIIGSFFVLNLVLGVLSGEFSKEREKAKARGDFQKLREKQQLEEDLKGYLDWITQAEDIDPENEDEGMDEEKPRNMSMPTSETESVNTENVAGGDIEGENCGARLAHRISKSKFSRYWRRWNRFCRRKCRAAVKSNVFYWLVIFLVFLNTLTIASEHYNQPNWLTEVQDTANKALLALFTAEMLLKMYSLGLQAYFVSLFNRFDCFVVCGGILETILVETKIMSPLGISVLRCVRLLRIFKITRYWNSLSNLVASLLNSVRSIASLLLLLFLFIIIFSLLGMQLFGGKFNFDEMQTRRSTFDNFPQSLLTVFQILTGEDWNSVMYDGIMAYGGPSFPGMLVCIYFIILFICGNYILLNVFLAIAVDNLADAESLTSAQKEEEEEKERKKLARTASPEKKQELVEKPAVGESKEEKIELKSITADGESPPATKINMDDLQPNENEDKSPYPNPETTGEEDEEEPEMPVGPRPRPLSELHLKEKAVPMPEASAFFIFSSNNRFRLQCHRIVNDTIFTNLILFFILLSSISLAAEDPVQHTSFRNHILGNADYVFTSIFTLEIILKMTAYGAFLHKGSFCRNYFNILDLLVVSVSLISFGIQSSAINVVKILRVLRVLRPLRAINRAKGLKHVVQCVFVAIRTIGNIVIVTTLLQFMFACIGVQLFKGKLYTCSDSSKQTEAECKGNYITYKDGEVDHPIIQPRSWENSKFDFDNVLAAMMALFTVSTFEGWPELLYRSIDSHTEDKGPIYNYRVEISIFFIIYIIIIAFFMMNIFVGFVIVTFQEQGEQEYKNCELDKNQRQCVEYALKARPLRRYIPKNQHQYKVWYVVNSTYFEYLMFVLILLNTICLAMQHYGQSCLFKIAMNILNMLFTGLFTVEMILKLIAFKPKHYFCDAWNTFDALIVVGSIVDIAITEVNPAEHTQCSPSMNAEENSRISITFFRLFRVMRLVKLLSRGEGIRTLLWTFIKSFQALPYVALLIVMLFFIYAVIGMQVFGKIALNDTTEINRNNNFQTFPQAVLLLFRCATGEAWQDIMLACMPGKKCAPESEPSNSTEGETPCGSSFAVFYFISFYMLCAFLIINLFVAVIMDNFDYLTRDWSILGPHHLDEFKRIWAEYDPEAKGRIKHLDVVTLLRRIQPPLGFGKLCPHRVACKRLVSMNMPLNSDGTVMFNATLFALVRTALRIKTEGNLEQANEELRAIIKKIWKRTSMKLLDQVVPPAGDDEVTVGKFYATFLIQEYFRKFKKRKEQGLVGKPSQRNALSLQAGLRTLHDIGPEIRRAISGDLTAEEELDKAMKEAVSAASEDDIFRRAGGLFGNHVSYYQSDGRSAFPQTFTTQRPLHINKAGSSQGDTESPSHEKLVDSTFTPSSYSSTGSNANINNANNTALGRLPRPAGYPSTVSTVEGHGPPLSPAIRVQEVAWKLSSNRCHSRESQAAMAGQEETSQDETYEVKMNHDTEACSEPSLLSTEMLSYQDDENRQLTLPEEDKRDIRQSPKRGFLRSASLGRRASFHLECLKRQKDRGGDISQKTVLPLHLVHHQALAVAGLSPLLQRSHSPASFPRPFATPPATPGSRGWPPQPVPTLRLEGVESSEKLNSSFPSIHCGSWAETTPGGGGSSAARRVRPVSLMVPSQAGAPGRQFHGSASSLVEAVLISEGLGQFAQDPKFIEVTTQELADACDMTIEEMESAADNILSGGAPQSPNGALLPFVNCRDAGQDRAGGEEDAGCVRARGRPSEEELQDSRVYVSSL"}, "[4]": {"target": "Human CaV1.2-Y437A (human)"}},
  "note": "pKd: −log10 of the molar value.",
  "data": [
    {"substance": "CaV1.2 AID peptide (α-interaction domain, unmodified)", "values": [
      {"measurement": "pKd", "setting": "[1]", "result": 8.18},
      {"measurement": "dH", "setting": "[1]", "result": -15.6, "unit": "kcal mol^–1"},
      {"measurement": "stoichiometry N", "setting": "[1]", "result": 0.94}
    ]},
    {"substance": "CaV1.2 AID peptide AID (from UniProt Q13936)", "values": [
      {"measurement": "pKd", "setting": "[2]", "result": 8.28}
    ]},
    {"substance": "CaVβ3 (expressed in oocytes) (from UniProt P54286 1-477) (natural protein)", "values": [
      {"measurement": "time constant τ for the loss of CaV1.2:CaVβ3 channels (rundown of Imax, single exponential fit) after injection of 2.8 mM AID peptide", "setting": "[3]", "result": 4.6, "unit": "min"},
      {"measurement": "time constant τ for the loss of CaV1.2:CaVβ3 channels (rundown of Imax, single exponential fit) after injection of 2.8 mM AID-CAP peptide", "setting": "[3]", "result": 5.3, "unit": "min"}
    ]},
    {"substance": "Rat CaVβ2a (expressed in oocytes) (natural protein)", "values": [
      {"measurement": "time constant τ of the rundown of Imax of CaV1.2-Y437A:CaVβ2a currents after injection of 400 μM AID peptide (single exponential fit)", "setting": "[4]", "result": 5.3, "unit": "min"},
      {"measurement": "time constant τ of the rundown of Imax of CaV1.2-Y437A:CaVβ2a currents after injection of 400 μM AID-CAP peptide (single exponential fit)", "setting": "[4]", "result": 4.1, "unit": "min"}
    ]}
  ]
}
